Measured values as given in publication PMC4938795.

Biological target: RD1-MART1^HIGH Y93Fα, yeast displayed (human)
Assay: flow cytometry on cells

MART1/HLA-A2 monomer (from UniProt P61769 21-119) (peptide-MHC)
fold weaker binding than RD1-MART1^HIGH: 10 fold
